Assay [1] has as its system mouse CRHR2. The experiment in a line: CRH-induced luciferase reporter blocking assay, CHO-CRE-mCRHR2 cells. The class given is cell-based. Here is the method:
To create CHO-CRE-hCRHR1, -hCRHR2, -mCRHR1, and -mCRHR2 reporter cell lines, pcDNA3.1-hCRHR1, -hCRHR2, -mCRHR1, and -mCRHR2 were introduced into CHO-CRE cells established above by electroporation as described above. Selection antibiotics hygromycin at 500 μg/ml and G418 at 1,000 μg/ml were employed. Individual established stable cell lines were characterized by both CRH and forskolin stimulation. […]
(§1) Cells were digested by trypsin-EDTA (Life technologies, Cat #:12604-013), centrifuged at 1,000 rpm for 5 min, resuspended in growth medium, counted using a cell counter, seeded at a concentration of 5,000 cells per 100 μl in 96-well flat plates, and incubated overnight. 50 μl of 4× serially diluted antibodies was added (8 points, 1/4 diluted by growth medium) to plates containing CHO-CRE-hCRHR1 cells, and 50 μl of 4×CRH (4× is 2 nM, final is 0.5 nM) was added. Similarly, 4×CRH (4× is 0.4 nM, final is 0.1 nM) was added to CHO-CRE-hCRHR2 cells and CHO-CRE-mCRHR1 cells, and 4×CRH (4× is 20 nM, final is 5 nM) was added to CHO-CRE-mCRHR2 cells. Next, plates were incubated 4-6 hours at 37° C. in a CO2 incubator. 60 μl of culture medium was removed, to which was added 60 μl of Bio-Glo luciferase, followed by incubation for 10 min at RT. Plates were read in a luciferase plate reader (EnVision, PerkinElmer).

Assay [2] has as its target T1, biotinylated CRH (Homo sapiens, UniProt P06850).
T1 construct: purchased GL Biochem 784751
T1 sequence (P06850 154-194): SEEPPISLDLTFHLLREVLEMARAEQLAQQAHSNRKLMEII
The experiment in a line: Affinity determination with Octet. The class given is binding. Here is the method: Octet® Red 96e was used for affinity measurement. Octet® running buffer was prepared by diluting kinetics buffer 10× (Fortebio, Cat #18-1105) in PBS according to the manufacturer's instructions. Two columns of SA sensors (Fortebio, Cat #18-5019) were hydrated in running buffer for 10 mins, one for ligand capturing and the other for reference. Antibodies were 2-fold diluted and added into a 96-well plate. 30 nM biotinylated CRH (GL Biochem, Cat #784751) was captured by the first column of SA sensors for 20 seconds, while reference sensors were dipped into buffer wells. After a 60-second baseline step, sensors were dipped into analyte and buffer wells successively, with the association and dissociation time of 180 seconds and 800 seconds, respectively. Sensors were regenerated in glycine pH1.5 (Cytiva, Cat #BR-1003-54) before the next cycle. […] Signals of reference wells and reference sensors were subtracted by selecting “Double reference” before data fitting.

Assay [3] has as its system human CRHR2. The experiment in a line: CRH-induced luciferase reporter blocking assay, CHO-CRE-hCRHR2 cells. Format: cell-based. Here is the method: To create CHO-CRE-hCRHR1, -hCRHR2, -mCRHR1, and -mCRHR2 reporter cell lines, pcDNA3.1-hCRHR1, -hCRHR2, -mCRHR1, and -mCRHR2 were introduced into CHO-CRE cells established above by electroporation as described above. Selection antibiotics hygromycin at 500 μg/ml and G418 at 1,000 μg/ml were employed. Individual established stable cell lines were characterized by both CRH and forskolin stimulation.
Activated GPCR proteins increase production of the intracellular cAMP. CHO-CRE-human CRHR1 stable clone 11 was generated by introduction of pcDNA3.1-human CRHR1 under the selection of G418 and hygromycin. Human CRHR1 expression in CHO-CRE-hCRHR1 Clone 11 was confirmed by flow cytometry (data not shown). To further validate that the cell line was functional, CHO-CRE-hCRHR1 Clone 11 cells were treated with forskolin and CRH peptide. […] Subsequently CHO-CRE-hCRHR2 Clone 32, -mCRHR1 Clone 22, and -mCRHR2 Clone 8 cell lines were established using similar methodology and validated with CRH treatment (data not shown).
Blocking CRHR1 by small molecules or neutralization of CRH peptide can reduce luciferase expression if the CRH-CRHR1 system works in CHO-CRE-hCRHR1 cells. Antalarmin, a small molecule CRHR1 antagonist, blocked CRH-mediated luciferase expression in CHO-CRE-hCRHR1 Clone 11 (data not shown). Furthermore, sheep anti-CRH polyclonal antibody reduced CRH-mediated luciferase expression in these cells (data not shown). Likewise, sheep anti-CRH polyclonal antibody blocked CRH-mediated luciferase expression in CHO-CRE-hCRHR2, CHO-CRE-mCRHR1, and CHO-CRE-mCRHR2 cells (data not shown).
as §1

The mark [4] stands for this setting: CHO-CRE-hCRHR2 cells, 0.1 nM CRH.

We go through six molecules from patent publication US20260042834A1, “ANTI-CORTICOTROPIN-RELEASING HORMONE ANTIBODIES AND POLYCYSTIC OVARY SYNDROME” (HBM ALPHA THERAPEUTICS, INC., priority 2022, published 2026).

B1: PR302334-8: humanized variant of Series 9 mAb PR302334; VH SEQ ID NO: 273, VL SEQ ID NO: 332 (antibody, V domains shown)
VH: EVQLVESGGGLVQPGGSLRLSCAASGFTFSTYAMSWVRQAPGKGLEWVASIRSGGTTYYPDSVKGRFTISRDNSKNTLYLQMNSLRAEDTAVYYCTRGIDWGQGTTVTVSS
VL: EIVMTQSPATLSVSPGERATLSCKASQSVNNDVAWYQQKPGQAPRLLIYYASNRYTGIPARFSGSGSGTEFTLTISSLQSEDLAVYFCQQDYSSWTFGGGTKVEIK
modifications: PR302334-10 VH, PR302334-11 VH, PR302334-12 VH, PR302334-14 VH,PR302334-7 VH, PR302334-8 VH, PR302334-9 VH; PR302334-22 VL, PR302334-2 VL, PR302334-8 VL
As to B1, the IC50 in assay [1] (CHO-CRE-mCRHR2 cells, 5 nM CRH) came to 2.74 nM. Also, in assay [2], the “kdis” value is less than 1e-07 s⁻¹ and the on-rate (kon) is 14700 M⁻¹ s⁻¹. For the same molecule, the IC50 in assay [3] (setting [4]) is 2.32 nM.

B2: PR302334-10: humanized variant of Series 9 mAb PR302334; VH SEQ ID NO: 273, VL SEQ ID NO: 328 (antibody, V domains shown)
VH: EVQLVESGGGLVQPGGSLRLSCAASGFTFSTYAMSWVRQAPGKGLEWVASIRSGGTTYYPDSVKGRFTISRDNSKNTLYLQMNSLRAEDTAVYYCTRGIDWGQGTTVTVSS
VL: DIVMTQSPDSLAVSLGERATINCKASQSVNNDVAWYQQKPGQPPRLLIYYASNRYTGVPDRFSGSGSGTDFTLTISSLQAEDLAVYFCQQDYSSWTFGGGTKVEIK
modifications: PR302334-10 VH, PR302334-11 VH, PR302334-12 VH, PR302334-14 VH,PR302334-7 VH, PR302334-8 VH, PR302334-9 VH; PR302334-10 VL, PR302334-24 VL, PR302334-26 VL, PR302334-4 VL
Take B2: in assay [1] (CHO-CRE-mCRHR2 cells, 5 nM CRH), the 50% inhibitory concentration (IC50) came out at 1.98 nM. In assay [2], the “kdis” value is less than 1e-07 s⁻¹ and the on-rate constant (kon) came to 6840 M⁻¹ s⁻¹. The half-inhibitory concentration (IC50) in assay [3] (setting [4]) was 2.08 nM.

B3: PR302334-25: humanized variant of Series 9 mAb PR302334; VH SEQ ID NO: 275, VL SEQ ID NO: 330 (antibody, V domains shown)
VH: EVQLVESGGGLVKPGGSLRLSCAASGFTFSTYAMSWVRQAPGKGLEWVASIRSGGTTYYPDSVKGRFTISRDNAKNSLYLQMNSLRAEDTAVYYCTRGIDWGQGTTVTVSS
VL: DIQMTQSSLSASVSLGDRVTITCKASQSVNNDVAWYQQKPGKAPRLLIYYASNRYTGVPSRFSGSGSGTDFTFTISSLQPEDLATYFCQQDYSSWTFGGGTKVEIK
modifications: PR302334-16 VH, PR302334-24 VH, PR302334-25 VH; PR302334-12 VL, PR302334-25 VL, PR302334-27 VL, PR302334-6 VL
Consider B3, for which, in assay [2], the “kdis” value is less than 1e-07 s⁻¹ and the “kon” value was determined as 285000 M⁻¹ s⁻¹.

B4: PR302334-27: humanized variant of Series 9 mAb PR302334; VH SEQ ID NO: 277, VL SEQ ID NO: 330 (antibody, V domains shown)
VH: EVQLVESGGGLVQPGGSLRLSCAASGFTFSTYAMSWVRQAPGKGLEWVASIRSGGTTYYPDSVKGRFTISRDNSKNSLYLQMNSLRAEDTAVYYCTRGIDWGQGTTVTVSS
VL: DIQMTQSSLSASVSLGDRVTITCKASQSVNNDVAWYQQKPGKAPRLLIYYASNRYTGVPSRFSGSGSGTDFTFTISSLQPEDLATYFCQQDYSSWTFGGGTKVEIK
modifications: PR302334-18 VH, PR302334-26 VH, PR302334-27 VH; PR302334-12 VL, PR302334-25 VL, PR302334-27 VL, PR302334-6 VL
In assay [1] (CHO-CRE-mCRHR2 cells, 5 nM CRH), B4 showed a half-inhibitory concentration (IC50) of 1.84 nM. Moreover, in assay [2], the “kdis” value is less than 1e-07 s⁻¹ and the “kon” value amounted to 302000 M⁻¹ s⁻¹. Half-maximal inhibition in assay [3] (setting [4]) (IC50) was put at 1.65 nM.

B5: PR302341: Series 10 anti-CRH mAb from immunized wildtype mice; VH SEQ ID NO: 280, VL SEQ ID NO: 339 (antibody, V domains shown)
VH: EVQLQQSGPELVKPGASVKMSCKASGYTFTDYFMKWVKQSHGESLEWIGVINPNNGDIFYNQKFKGKATLTVDKSSSTAFMQLNSLTSEDSAVYSCARGTDRALFAYWGQGTLVAVSA
VL: DVLMTQTPLSLPVSLGDQASISCRSGQSIVHSDGNTYLEWYLQRPGQSPRLLIYKVSNRFSGVPDRFSGSGSGTDFTLKISRVGAEDLGIYYCFQGSHIPWTFGGGTKLEVK
modifications: PR302341-1 VH, PR302341-2 VH, PR302341-3 VH, PR302341-4 VH,PR302341-5 VH, PR302341-6 VH, PR302341 VH; PR302341-13 VL, PR302341-14 VL, PR302341-15 VL, PR302341-16 VL,PR302341-17 VL, PR302341-18 VL, PR302341 VL
As for B5, the concentration for half-maximal inhibition (IC50) is 0.849 nM in assay [1] (CHO-CRE-mCRHR2 cells, 5 nM CRH); 2.41 nM in assay [1] (Table 9, mCrhr2); 0.244 nM in assay [3] (setting [4]); approximately 2.18 nM in assay [3] (Table 9, hCRHR2). For the same molecule, the “kdis” value in assay [2] was found to be 2.18e-07 s⁻¹. In addition, in assay [2], the on-rate constant (kon) was found to be 1.01e+06 M⁻¹ s⁻¹.

B6: PR302334: Series 9 anti-CRH mAb from immunized wildtype mice; VH SEQ ID NO: 272, VL SEQ ID NO: 331 (antibody, V domains shown)
VH: EVKLVESGGGLVKPGGSLKLSCAASGFTFSTYAMSWVRQTPEKRLEWVASIRSGGTTYYPDSVKGRFTISRDNARNILYLQMSSLRSEDTAIYYCTRGIDWGQGTLVTVSA
VL: NIVMTQTPKFLLVSAGDRITITCKASQSVNNDVAWYQQKPGQSPKLLIYYASNRYTGVPDRFTGSGYGTDFTFTISTVQAEDLAVYFCQQDYSSWTFGGGTNLEIK
modifications: PR302334-1 VH, PR302334-2 VH, PR302334-3 VH, PR302334-4 VH,PR302334-5 VH, PR302334-6 VH, PR302334 VH; PR302334-14 VL, PR302334-15 VL, PR302334-16 VL, PR302334-17 VL,PR302334-18 VL, PR302334 VL
Take B6: the half-maximal inhibitory concentration (IC50) in assay [1] (CHO-CRE-mCRHR2 cells, 5 nM CRH) was 0.995 nM; in assay [3] (setting [4]), 0.803 nM. Moreover, the “kdis” value in assay [2] was less than 1e-07 s⁻¹. In addition, the “kon” value in assay [2] worked out at 669000 M⁻¹ s⁻¹.
